Values of other authors in paper PMC3587688.

Target: ephrin-B2 (Homo sapiens) (UniProt P52799)
Sequence (P52799 28-333): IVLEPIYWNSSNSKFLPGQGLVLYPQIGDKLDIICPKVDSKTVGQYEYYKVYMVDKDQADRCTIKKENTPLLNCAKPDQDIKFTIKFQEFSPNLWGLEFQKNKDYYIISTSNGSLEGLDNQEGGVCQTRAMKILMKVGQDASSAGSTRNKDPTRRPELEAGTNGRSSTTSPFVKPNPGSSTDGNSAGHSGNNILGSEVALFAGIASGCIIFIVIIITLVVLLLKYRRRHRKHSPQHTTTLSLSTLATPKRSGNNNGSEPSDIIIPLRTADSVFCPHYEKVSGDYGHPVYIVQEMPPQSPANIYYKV

Sequence of HeV-G (O89343 whole entry): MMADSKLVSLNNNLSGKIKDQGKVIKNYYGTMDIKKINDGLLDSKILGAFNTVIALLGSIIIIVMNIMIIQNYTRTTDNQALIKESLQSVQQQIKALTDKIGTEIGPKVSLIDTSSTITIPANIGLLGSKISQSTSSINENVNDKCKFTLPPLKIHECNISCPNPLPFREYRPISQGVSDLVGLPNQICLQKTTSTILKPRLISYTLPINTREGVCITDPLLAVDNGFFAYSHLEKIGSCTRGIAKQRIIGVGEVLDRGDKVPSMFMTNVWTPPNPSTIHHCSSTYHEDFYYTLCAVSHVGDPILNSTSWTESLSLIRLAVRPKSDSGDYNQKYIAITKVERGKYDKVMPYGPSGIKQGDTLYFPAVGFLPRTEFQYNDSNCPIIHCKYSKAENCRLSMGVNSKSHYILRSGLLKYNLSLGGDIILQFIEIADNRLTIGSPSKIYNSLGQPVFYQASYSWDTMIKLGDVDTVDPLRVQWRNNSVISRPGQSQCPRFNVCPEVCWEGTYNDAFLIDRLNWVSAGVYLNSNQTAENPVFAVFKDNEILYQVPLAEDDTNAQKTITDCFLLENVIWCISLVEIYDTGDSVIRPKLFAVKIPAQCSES

Q: Which Kd does the source give for HeV-G (from UniProt O89343) here?
A: The Kd was 0.57 nM.
